These results are taken from PMC7504508.

Where two headings read alike, the source gives them in different places.

The target of test [1] is GST-Sumo fusion protein of the perch Connexin 35 C-terminal domain (amino acids 251-304), wild type (perch). Put plainly: SPR; GST-Sumo-Cx35 fusion proteins captured by immobilised anti-GST antibodies on a CM5 chip (Biacore 2000); calmodulin as analyte, 3 nM to 30 µM; GST-Sumo reference flowcell subtracted; 1 mM free Ca2+, 0.5 mM free Mg2+, 140 mM KCl, 10 mM MOPS pH 7.2, 0.05% Tween 20; first order ligand binding ….

Test [2] deals with GST-Sumo fusion protein of the perch Cx35 C-terminal domain (251-304) R268A (perch). Described as above.
Test [3] has as its target GST-Sumo fusion protein of the perch Cx35 C-terminal domain (251-304) V267A (perch). Described as above.
Test [4] deals with GST-Sumo fusion protein of the perch Cx35 C-terminal domain (251-304) I277A (perch). The test is described as above.
Test [5] concerns the target GST-Sumo fusion protein of the perch Cx35 C-terminal domain (251-304) V270A, Q271A (perch). The test is described as above.
For test [6], the target named is GST-Sumo fusion protein of the perch Connexin 35 C-terminal domain (amino acids 251-304), wild type (perch). The test is described as above. This is another data set of the same source.
The target is the same in test [7].

For “calmodulin (from UniProt P0DP23 1-149) (natural protein)”, the Kd in test [1] was found to be 1.43 µM; in test [2], 2.46 µM; in test [3], 5.39 µM; in test [4] it was 1.26 µM; in test [5], 1.19 µM; in test [6], 1.38 µM. The substance also registered a reduction of Neurobiotin tracer coupling by 5 µM ionomycin in transiently transfected HeLa cells (full-length untagged Cx35 wild type in the cells) in test [7] of 67%.
